± gives the standard deviation of the averaged measurements.
Columns and labels:
Saccharomyces cerevisiae [1] = assay: protein stability index of tFT-peptide fusion in wild type (PSI (0-1 scale)); higher = more stable (slower turnover); conditions: genetic background: wild type
Saccharomyces cerevisiae [2] = assay: protein stability index of tFT-peptide fusion in deletion strain of DOA10 (PSI (0-1 scale)); higher = more stable (slower turnover)
Protocol: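 MPS profiling in S. cerevisiae of two library types built from selected 12-aa C-degron peptides (IN1, IN2, LN1, LN3, VN2, R1-R5, W1-W3, Atg1 and Rpa12 C-termini): saturation mutagenesis libraries and C-terminal +1 capping libraries (13 aa). Each peptide is fused to the C-terminus of a sfGFP-mCherry timer, after a GGGS linker. Cells are FACS-sorted into 8 mCherry/sfGFP bins and sequenced. PSI runs from 0 (unstable) to 1 (stable), measured once in wild type and in the das1Δ or doa10Δ background.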

Saccharomyces cerevisiae [3] = assay: protein stability index of tFT-peptide fusion (C-terminal peptide) (PSI (0-1 scale)); higher = more stable (slower turnover); conditions: genetic background: wild type; temperature: 30 C
Saccharomyces cerevisiae [4] = assay: as above
Protocol: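 MPS profiling in S. cerevisiae of the tFT-X12 degron library: putative degron peptides plus stable controls, 12 aa, fused to the C-terminus of a sfGFP-mCherry timer. Cells are FACS-sorted into 8 mCherry/sfGFP bins and deep-sequenced. PSI runs from 0 (unstable) to 1 (stable). Backgrounds are wild type, das1Δ and doa10Δ at 30 °C, and wild type, das1Δ, cdc34-1 and cdc53-1 at 37 °C; 2-3 technical replicates each.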

[5] = genetic background: cdc34-1, temperature: 37 C
[6] = genetic background: cdc53-1, temperature: 37 C
[7] = genetic background: das1 deletion, temperature: 30 C
[8] = genetic background: das1 deletion, temperature: 37 C
[9] = genetic background: doa10 deletion, temperature: 30 C
[10] = genetic background: wild type, temperature: 30 C
[11] = genetic background: wild type, temperature: 37 C
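Wherever protein stability index of tFT-peptide fusion (C-terminal peptide) is given: PSI is a weighted mean of sequencing reads over stability bins, variants kept only with over 10 reads, mCherry proximal and sfGFP distal, peptide attached via GGGS linker.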
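Wherever protein stability index of tFT-peptide fusion in deletion strain of DOA10 is given: PSI per variant is the weighted mean of its sequencing read distribution over the sorted stability bins, counting only variants with over 10 reads summed across bins.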
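Wherever protein stability index of tFT-peptide fusion in wild type is given: PSI derived as read-weighted mean over the 8 sorting bins, only variants exceeding 10 total reads kept, mCherry placed adjacent to the peptide and sfGFP distal.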

| Sequence | protein stability index (Saccharomyces cerevisiae [1]) | protein stability index (Saccharomyces cerevisiae [2]) | also measured |
| --- | --- | --- | --- |
| CLVSLPILLFFR | 0.0566 | 0.586 | protein stability index (Saccharomyces cerevisiae [3]): 0.0658 ± 0.021; protein stability index (Saccharomyces cerevisiae [4]; [5]): 0.0435 ± 0.013; protein stability index (Saccharomyces cerevisiae [4]; [6]): 0.0381 ± 0.0045; protein stability index (Saccharomyces cerevisiae [4]; [7]): 0.0501 ± 0.019; protein stability index (Saccharomyces cerevisiae [4]; [8]): 0.0652 ± 0.014; protein stability index (Saccharomyces cerevisiae [4]; [9]): 0.545 ± 0.023; protein stability index (Saccharomyces cerevisiae [4]; [10]): 0.0298 ± 0.0067; protein stability index (Saccharomyces cerevisiae [4]; [11]): 0.0556 ± 0.015 |
| AITLPMCPLLLR | 0.207 | 0.649 | protein stability index (Saccharomyces cerevisiae [3]): 0.256 ± 0.018; protein stability index (Saccharomyces cerevisiae [4]; [5]): 0.0636 ± 0.0091; protein stability index (Saccharomyces cerevisiae [4]; [6]): 0.047 ± 0.0088; protein stability index (Saccharomyces cerevisiae [4]; [7]): 0.165 ± 0.017; protein stability index (Saccharomyces cerevisiae [4]; [8]): 0.204 ± 0.014; protein stability index (Saccharomyces cerevisiae [4]; [9]): 0.6226 ± 0.0028; protein stability index (Saccharomyces cerevisiae [4]; [10]): 0.16 ± 0.027; protein stability index (Saccharomyces cerevisiae [4]; [11]): 0.157 ± 0.0086 |
| NLYMCSVGCWFR | 0.414 | 0.657 |  |
| RLLRVLLPLYFR | 0.407 | 0.673 |  |
| RVTILDAIYFRI | 0.545 | 0.663 |  |
| AITWPMCPLLLR | 0.226 | 0.7 |  |
| RSLMVLLPLYFR | 0.34 | 0.637 |  |
| GLYMCSVNCWFR | 0.487 | 0.566 |  |
| RSLRVLLMLYFR | 0.218 | 0.468 |  |
| RVTRLDAIYFRIH | 0.087 | 0.143 |  |
| RSLWVLLPLYFR | 0.284 | 0.605 |  |
| RSWRVLLPLYFR | 0.297 | 0.692 |  |
| AITLMMCPLLLR | 0.302 | 0.612 |  |
| CLVSLPFLLFFR | 0.0627 | 0.618 |  |
| AITLPMCPLLLRT | 0.169 | 0.441 |  |
| PLYMCSVGCWFR | 0.462 | 0.643 |  |
| AITLPWCPLLLR | 0.153 | 0.662 |  |
| GLYMCWVGCWFR | 0.182 | 0.387 |  |
| GLVSLPILLFFR | 0.0632 | 0.608 |  |
| CLVSLYILLFFR | 0.174 | 0.347 |  |

| Sequence | protein stability index (Saccharomyces cerevisiae [1]) | protein stability index (Saccharomyces cerevisiae [2]) | also measured |
| --- | --- | --- | --- |
| GLYMCSVGCWER | 0.632 | 0.656 |  |
| AITTPMCPLLLR | 0.462 | 0.668 |  |
| AITLPMCPLLLRS | 0.261 | 0.554 |  |
| AVTLPMCPLLLR | 0.261 | 0.648 |  |
| RVWRLDAIYFRI | 0.246 | 0.543 |  |
| RSLKVLLPLYFR | 0.27 | 0.666 |  |
| GLYMCSVGCWFRL | 0.114 | 0.624 |  |
| RVTRLDAIGFRI | 0.69 | 0.696 |  |
| RSLRLLLPLYFR | 0.289 | 0.656 |  |
| AITLPMCTLLLR | 0.116 | 0.675 |  |
| GLYMCHVGCWFR | 0.279 | 0.629 |  |
| RSTRLDAIYFRI | 0.53 | 0.678 |  |
| GLYMNSVGCWFR | 0.351 | 0.704 |  |
| CLVSLPILLGFR | 0.391 | 0.653 |  |
| AITLPMGPLLLR | 0.186 | 0.688 |  |
| RSKRVLLPLYFR | 0.362 | 0.675 |  |
| GLYMCLVGCWFR | 0.254 | 0.406 |  |
| GLYMFSVGCWFR | 0.234 | 0.524 |  |
| GLYMCSVGCWFRH | 0.271 | 0.616 |  |
